Experiment [1] has as its target T1, Bovine submaxillary mucin (bovine).
T1 construct: Glycoprotein used as the TAG-72-positive antigen in dot blots and SPR; also called BSM; TAG-72 positive mucin
Description: SPR, BSM immobilised on CM5 chip. Here is the method:
To further confirm the binding data, surface plasmon resonance on 3E8.IgG, CC49.scFv, and 3E8.scFv (FIG. 7c) was determined. […] Next the affinity of the scFv of CC49 was measured. CC49.scFv binds in the mid-nanomolar range with a dissociation constant of 30±8 nM. Finally, SPR was conducted on 3E8.scFv and found it to bind 2-fold better than CC49.scFv and only 4-fold weaker than the bivalent IgG. At 16±4 nM, 3E8.scFv binds better than clinically tested CC49.IgG and scFv variants of CC49, and has more desirable biophysical properties than full-length antibodies.
The binding parameters were evaluated using surface plasmon resonance (SPR). BSM was immobilized on a CM5 dextran sensor chip using the GE Pharmacia amine coupling kit (BR-1000-50). Scouting conditions were 200 μg mL⁻¹ BSM in 100 mM sodium acetate, pH 4 for channel 2, and 10 μg mL⁻¹ BSA in 100 mM sodium acetate, pH 4 for channel 1. The immobilization protocol continued until 700 RU were obtained. Binding was measured as 2-1. Antibody and fragments were dialyzed into 10 mM HEPES, 150 mM NaCl, 3.4 μM EDTA, 0.005% surfactant P20 (GE Healthcare) and were assayed from 0-400 nM. Samples were bound for 120 seconds at 10 μL min⁻¹ and dissociation was measured for 180 seconds. The CM5 chip was regenerated between trials with 6 M guanidine and 200 mM acetic acid with no loss in activity. The average binding parameters were evaluated using the BIAevaluation software.
A general note: SPR reads the build-up and loss of mass on a sensor chip optically.

Experiment [2] has as its target T1, Bovine submaxillary mucin. Description: estimate from the competition dot blot against labeled 3E8.IgG.
The target in experiment [3] is T1, Bovine submaxillary mucin. Kind of experiment: SPR.
Experiment [4] deals with T1, Bovine submaxillary mucin. Kind of experiment: estimate from the competition dot blot on BSM. Here is the method:
(§1) A similar dot blot experiment was performed using constant concentrations of BSM and fluorescein-labeled 3E8 IgG. The assays were performed with increasing concentrations of unlabeled 3E8.scFv. […] Two negative controls were performed in parallel. […] By 4 μM scFv about half of the IgG is displaced and by […] the dot blot resembles the negative control. This analysis estimates that 3E8.scFv binds approximately 16-fold weaker than 3E8.IgG and both bind the same epitope. The slight loss in affinity is expected since the native IgG is bivalent versus the monovalent scFv.
(§2) The epitope binding of the 3E8.scFv was assayed for its ability to inhibit 3E8.IgG binding. Here, 0.25 μM labeled 3E8.IgG competed with increasing concentrations of nonlabeled 3E8.scFv (0 to 8 μM). The loss of fluorescence was observed using the Typhoon phosphorimager with 488 nm excitation.

Experiment [5] deals with T1, Bovine submaxillary mucin. Kind of experiment: competition dot blot; unlabeled scFv against 0.25 µM fluorescein-labeled 3E8 IgG on BSM. The protocol: as §1, §2
Experiment [6] deals with T2, bovine serum albumin (bovine, UniProt P02769 25-607).
T2 construct: also called BSA
T2 sequence (P02769 25-607 limits assumed): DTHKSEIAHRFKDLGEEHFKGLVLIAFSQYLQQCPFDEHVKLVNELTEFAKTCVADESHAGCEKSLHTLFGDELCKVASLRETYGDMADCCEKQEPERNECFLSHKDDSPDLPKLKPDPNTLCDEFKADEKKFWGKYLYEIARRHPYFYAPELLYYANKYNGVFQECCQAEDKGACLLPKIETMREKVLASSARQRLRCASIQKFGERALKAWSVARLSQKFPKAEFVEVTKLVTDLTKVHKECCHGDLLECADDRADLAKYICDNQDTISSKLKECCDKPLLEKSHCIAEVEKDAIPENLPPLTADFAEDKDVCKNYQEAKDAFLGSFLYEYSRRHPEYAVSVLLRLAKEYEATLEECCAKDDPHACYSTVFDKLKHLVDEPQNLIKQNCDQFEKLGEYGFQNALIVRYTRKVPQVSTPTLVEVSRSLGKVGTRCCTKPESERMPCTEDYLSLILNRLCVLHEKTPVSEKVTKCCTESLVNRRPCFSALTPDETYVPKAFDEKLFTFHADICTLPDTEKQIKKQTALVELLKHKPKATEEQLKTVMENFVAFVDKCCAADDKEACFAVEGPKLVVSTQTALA
Description: fluorescence dot blot on nitrocellulose. The protocol:
Bovine submaxillary mucin is positive for the TAG-72 epitope, sialyl-Tn. To qualitatively assay binding, BSM was spotted on a nitrocellulose membrane and then blocked with bovine serum albumin (BSA). The antibodies and fragments were labeled nonspecifically at lysines with the NHS-ester of fluorescein, and then were added to the dot blots. After gentle washing the samples were imaged using a Typhoon phosphorimager.
Qualitative binding to sialyl-Tn was assayed by dot-blotting. First, 2 μL of 5 mg mL⁻¹ bovine submaxillary mucin (M3895-Sigma) was spotted on a nitrocellulose membrane. The membrane was allowed to dry overnight before blocking with 5 mg mL⁻¹ BSA. After overnight incubation, excess BSA was removed by washing before addition of fluorescein-labeled scFvs. The scFvs were incubated for 3 hours at room temperature before washing. Fluorescence was observed using a Typhoon phosphorimager with 488 nm excitation.

Experiment [7] has as its target T1, Bovine submaxillary mucin. Kind of experiment: SPR on immobilised BSM.
Experiment [8] deals with T2, bovine serum albumin. Kind of experiment: negative control of the competition dot blot, fluorescein-labeled IgG, no BSM. Here is the method: as §1, §2

B1: 3E8.scFv (scFv)
scFv: GSSGDIVMTQSPDSLAVSLGERATINCKSSQSVLYSSNNKNYLAWYQQKPGQPPKLLIYWASTRESGVPDRFSGSGSGTDFTLTISSLQAEDVAVYYCQQYYSYPLTFGGGTKVEIKLSADDAKKDAAKKDDAKKDDAKKDLQVQLVQSGAEVKKPGASVKVSCKASGYTFTDHAIHWVRQAPGQRLEWMGYFSPGNDDFKYSQKFQGRVTITADKSASTAYMELSSLRSEDTAVYYCARSWIMQYWGQGTLVTVSS
notes: Labelled at lysines with fluorescein for the fluorescence dot blots and with biotin for the HRP dot blot and IHC; also called the scFv of 3E8; 3E8 scFv single chain
A word on the Kd: it is the concentration at which binding is half-saturated. For orientation: IC50 means the concentration that inhibits the measured activity by half. Read a low IC50 as inhibition by little substance. For the molecule B1, the Kd in experiment [1] is 16 nM; in experiment [2] it was about 10.4 nM; in experiment [3], 16.4 nM; in experiment [7] it was 12 nM. For the same molecule, in experiment [1], the “fold tighter binding than CC49.scFv” value is 2 fold. For the same molecule, the “fold weaker binding than 3E8 IgG” value in experiment [1] turned out to be 4 fold. In experiment [4], the “fold weaker binding than 3E8.IgG” value was about 16 fold. In experiment [5], the IC50 was about 4000 nM. In addition, in the experiment with bovine serum albumin [6], the binding result is given as “no binding”.

B2: 3E8 IgG (antibody, V domains shown)
VH: QVQLVQSGAEVKKPGASVKVSCKASGYTFTDHAIHWVRQAPGQRLEWMGYFSPGNDDFKYSQKFQGRVTITADKSASTAYMELSSLRSEDTAVYYCARSWIMQYWGQGTLVTVSS
VL: not shown
notes: Full-length humanized monoclonal IgG, gift from Enlyton, Ltd; Fluorescein-labelled at lysines in the dot blots; also called the bivalent IgG; full-length 3E8 IgG
Molecule B2 came in with a Kd in experiment [1] of 4 nM. In addition, the binding result with bovine serum albumin [8] is listed as “no binding (tested: 0.25 µM)”.

The values are drawn from patent publication US20170218081A1 (OHIO STATE INNOVATION FOUNDATION, published 2017).
